Results reported in paper PMC7785020, “A unique hormonal recognition feature of the human glucagon-like peptide-2 receptor” (Cell Research, 2020).
Changes are numbered by the printed parent chain. Each block holds one molecule with its values, some of them ahead of it.

Columns and labels:
GLP-2R W249^ECL1A = biological target: T1, GLP-2R W249^ECL1A (Homo sapiens, UniProt O95838, W249A); experiment: cAMP accumulation, W249^ECL1A; format: cell-based; set-up: WT (1–553); expressed in transfected cells; HEK 293T (cAMP)
T1 sequence (O95838 1-553 W249A): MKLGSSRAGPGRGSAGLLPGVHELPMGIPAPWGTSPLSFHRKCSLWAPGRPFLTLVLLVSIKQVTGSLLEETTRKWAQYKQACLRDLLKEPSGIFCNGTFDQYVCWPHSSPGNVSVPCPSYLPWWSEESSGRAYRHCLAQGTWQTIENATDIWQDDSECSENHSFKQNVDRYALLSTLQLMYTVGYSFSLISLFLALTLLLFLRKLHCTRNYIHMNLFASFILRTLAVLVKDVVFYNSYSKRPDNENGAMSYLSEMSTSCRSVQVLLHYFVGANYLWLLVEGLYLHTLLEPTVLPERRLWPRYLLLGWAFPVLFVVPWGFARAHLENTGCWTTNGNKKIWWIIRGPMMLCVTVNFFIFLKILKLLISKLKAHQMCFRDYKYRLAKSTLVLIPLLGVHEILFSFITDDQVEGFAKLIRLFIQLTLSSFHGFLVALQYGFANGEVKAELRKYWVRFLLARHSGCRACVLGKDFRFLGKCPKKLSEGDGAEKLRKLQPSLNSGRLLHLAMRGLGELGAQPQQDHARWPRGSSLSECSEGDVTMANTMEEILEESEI
Description: (§1) They were seeded onto 6-well cell culture plates and transiently transfected with different GLP-2R constructs using Lipofectamine 2000 transfection reagent (Invitrogen, Carlsbad, CA, USA). After 24 h, the transfected cells were seeded onto 384-well microtiter plates (3000 cells per well) in HBSS supplemented with 5 mM HEPES, 0.1% (w/v) bovine serum albumin (BSA) and 0.5 mM 3-isobutyl-1- methylxanthine, and stimulated with increasing concentrations of GLP-2 for 30 min at RT. Eu and Ulight were diluted by cAMP detection buffer and added to the plates separately to terminate the reaction. Plates were incubated at RT for 60 min before measuring the fluorescence intensity at 620 nm and […] by an EnVision multilabel plate reader (PerkinElmer, Boston, USA).

GLP-2R Y252^ECL1A = biological target: T2, GLP-2R Y252^ECL1A (Homo sapiens, UniProt O95838, Y252A); experiment: cAMP accumulation, Y252^ECL1A; format: cell-based; set-up: WT (1–553); expressed in transfected cells; HEK 293T (cAMP)
T2 sequence (O95838 1-553 Y252A): T1 sequence (O95838 1-553 W249A) with A249W, Y252A
Description: as §1

GLP-2R R242^ECL1E = biological target: T3, GLP-2R R242^ECL1E (Homo sapiens, UniProt O95838, R242E); experiment: cAMP accumulation, R242^ECL1E; format: cell-based; set-up: WT (1–553); expressed in transfected cells; HEK 293T (cAMP)
T3 sequence (O95838 1-553 R242E): T1 sequence (O95838 1-553 W249A) with R242E, A249W
Description: as §1

[1] = biological target: GLP-2R W249^ECL1A (human) (UniProt O95838)
[2] = biological target: T4, GLP-2R R242(ECL1)A (human) (UniProt O95838)
T4 sequence: T1 sequence (O95838 1-553 W249A) with R242A, A249W

[3] = biological target: GLP-2R R242(ECL1)E (human) (UniProt O95838)
[4] = biological target: T5, GLP-2R Y252(ECL1)A (human) (UniProt O95838)
T5 sequence: T1 sequence (O95838 1-553 W249A) with A249W, Y252A

[5] = biological target: GLP-2R (1-553) (WT) (human) (UniProt O95838)
[6] = biological target: GLP-2R W249^ECL1A (human) (UniProt O95838); remark: listed apart in the source
[7] = biological target: T4, GLP-2R R242(ECL1)A (human); remark: listed apart in the source
[8] = biological target: GLP-2R R242(ECL1)E (human) (UniProt O95838); remark: listed apart in the source
[9] = biological target: T5, GLP-2R Y252(ECL1)A (human); remark: listed apart in the source
[10] = biological target: GLP-2R (1-553) (WT) (human) (UniProt O95838); remark: listed apart in the source
[11] = biological target: Human GLP-2R WT (1–553) (human) (UniProt O95838)
GLP-2R = details: cited from earlier work
Excerpt: Consistently, the truncated metabolite GLP-2(3–33) acts as a part ...

GLP-1R (WT) = GLP-1R (WT) (Homo sapiens, UniProt P43220)
Sequence of GLP-1R (WT) (P43220 24-463): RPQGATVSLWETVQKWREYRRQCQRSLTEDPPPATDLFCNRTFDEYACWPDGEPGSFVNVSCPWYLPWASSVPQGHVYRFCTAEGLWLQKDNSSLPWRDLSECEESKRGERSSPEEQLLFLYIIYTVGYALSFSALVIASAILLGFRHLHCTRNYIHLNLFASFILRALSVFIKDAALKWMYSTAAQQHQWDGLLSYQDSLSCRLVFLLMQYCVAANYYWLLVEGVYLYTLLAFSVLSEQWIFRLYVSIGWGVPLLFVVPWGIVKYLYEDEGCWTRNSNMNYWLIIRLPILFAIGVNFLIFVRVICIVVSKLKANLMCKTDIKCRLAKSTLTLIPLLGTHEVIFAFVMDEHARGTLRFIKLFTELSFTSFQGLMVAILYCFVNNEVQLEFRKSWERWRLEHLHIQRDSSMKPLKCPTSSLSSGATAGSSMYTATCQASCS

Molecule: Human GLP-2(1-33) (peptide)
- Table S5: pEC50 of GLP-2(1-33)-induced cAMP accumulation, cells transfected with the receptor mutant [1]: 7.4 -log M
- Table S5: pEC50 of GLP-2(1-33)-induced cAMP accumulation, cells transfected with the receptor mutant [2]: 9.9 -log M
- Table S5: pEC50 of GLP-2(1-33)-induced cAMP accumulation, cells transfected with the receptor mutant [3]: 9.6 -log M
- Table S5: pEC50 of GLP-2(1-33)-induced cAMP accumulation, cells transfected with the receptor mutant [4]: 10.1 -log M
- Table S5: pEC50 of GLP-2(1-33)-induced cAMP accumulation, cells transfected with the receptor (wild-type reference of the table) [5]: 10.8 -log M
- Table S3: pEC50 of GLP-2-induced cAMP accumulation, HEK 293T cells transfected with the receptor mutant [6]: 7.2 -log M
- Table S3: pEC50 of GLP-2-induced cAMP accumulation, HEK 293T cells transfected with the receptor mutant [7]: 9.8 -log M
- Table S3: pEC50 of GLP-2-induced cAMP accumulation, HEK 293T cells transfected with the receptor mutant [8]: 9.1 -log M
- Table S3: pEC50 of GLP-2-induced cAMP accumulation, HEK 293T cells transfected with the receptor mutant [9]: 9.8 -log M
- Table S3: pEC50 of GLP-2-induced cAMP accumulation, HEK 293T cells transfected with the receptor (wild-type reference of the table) [10]: 10.4 -log M

Molecule: chimeric GLP-2/GLP-1(1–6) (peptide)
- peptide-induced cAMP accumulation for GLP-2R: fold decrease against native GLP-2 [11]: 12 fold

Molecule: GLP-2(3–33): truncated metabolite of GLP-2, partial agonist (DGSFSDEMNTILDNLAARDFINWLIQTKITD; Glucagon-like peptide 2; UniProt P01275 148-178, looked up, fragment)
- type of agonism (in words) (GLP-2R; GLP-2R): partial agonist
- reduction in binding affinity (in words) (GLP-2R; vs GLP-2): great reduction in binding affinity
- reduction in potency (in words) (GLP-2R; vs GLP-2): great reduction in binding affinity and potency

Molecule: HADGSFTSDVSSYLEGQAARDFINWLIQTKITD [chimeric GLP-2/GLP-1(7-19)]
- Table S5: pEC50 of cAMP accumulation induced by the chimeric peptide (7-19), cells transfected with GLP-1R (WT) (GLP-1R (WT)): 10.9 -log M
- Table S5: pEC50 of cAMP accumulation induced by the chimeric peptide (7-19), cells transfected with GLP-2R (WT) [5]: 8.5 -log M

Next, values leading:

- EC50 (GLP-2R W249^ECL1A): 2.51 nM
- Emax (GLP-2R W249^ECL1A; HEK-293T, Table S5, W249A, HEK 293T, 30 min, RT, mean ± SEM, n ≥ 3 in duplicate, read-out: cAMP Emax (% WT)): -2.4 ± 0.7%
- EC50 (GLP-2R Y252^ECL1A): 0.631 nM
- Emax (GLP-2R Y252^ECL1A; HEK-293T, Table S5, Y252A, HEK 293T, 30 min, RT, mean ± SEM, n ≥ 3 in duplicate, read-out: cAMP Emax (% WT)): -0.7 ± 1.1%
- EC50 (GLP-2R R242^ECL1E): 2.51 nM
- Emax (GLP-2R R242^ECL1E; HEK-293T, Table S5, R242E, HEK 293T, 30 min, RT, mean ± SEM, n ≥ 3 in duplicate, read-out: cAMP Emax (% WT)): -2.2 ± 0.9%
Molecule: CC[C@H](C)[C@H](NC(=O)[C@H](Cc1ccccc1)NC(=O)[C@H](CCC(=O)O)NC(=O)[C@H](CCCCN)NC(=O)[C@H](C)NC(=O)[C@H](C)NC(=O)[C@H](CCC(N)=O)NC(=O)CNC(=O)[C@H](CCC(=O)O)NC(=O)[C@H](CC(C)C)NC(=O)[C@H](Cc1ccc(O)cc1)NC(=O)[C@H](CO)NC(=O)[C@H](CO)NC(=O)[C@@H](NC(=O)[C@H](CC(=O)O)NC(=O)[C@H](CO)NC(=O)[C@@H](NC(=O)[C@H](Cc1ccccc1)NC(=O)[C@@H](NC(=O)CNC(=O)[C@H](CCC(=O)O)NC(=O)[C@H](C)NC(=O)[C@@H](N)Cc1c[nH]cn1)[C@@H](C)O)[C@@H](C)O)C(C)C)C(=O)N[C@@H](C)C(=O)N[C@@H](Cc1c[nH]c2ccccc12)C(=O)N[C@@H](CC(C)C)C(=O)N[C@H](C(=O)N[C@@H](CCCCN)C(=O)NCC(=O)N[C@@H](CCCNC(=N)N)C(=O)NCC(=O)O)C(C)C [GLP-1(1-31)]

- peptide-induced cAMP accumulation for GLP-2R: fold reduction of potency [11]: 17 fold
Molecule: chimeric GLP-2/GLP-1(20–33) (peptide)
